B1: GFP-xBuGZ-A (domain or fragment, Xenopus, UniProt Q7ZXV8 111-187, looked up)
chain: NQDDSDYDDDDDTAPSTSFQQMQTQQAFMPTMGQPGIPGLPGAPGMPPGITSLMPAVPPLISGIPHVMAGMHPHGMM
B2: GFP-xBuGZ-C (domain or fragment, Xenopus, UniProt Q7ZXV8 376-452, looked up)
chain: GAMMAPRPGLPPQQHGMRHPLPPHGQYGAPLQGMAGYHPGTMPPFGQGPPMVPPFQGGPPRPLMGIRPPVMSQGGRY
B3: GFP-xBuGZ-B (domain or fragment, Xenopus, UniProt Q7ZXV8 258-334, looked up)
chain: SAGQAQAHISGPVGTDFKPLNNIPATTAEHPKPTFPAYTQSTMSTTSTTNSTASKPSTSITSKPATLTTTSATSKLV
B4: YFP-tagged xBuGZ (Xenopus BuGZ) (natural protein)
chain: not shown

biological target: His-xBuGZ (Xenopus, UniProt Q7ZXV8 1-452); assay: incorporation into His-xBuGZ droplets

Binding result, binds:
B1
B2
B3
B4
